The target in this test is low-density lipoprotein receptor-related protein 1 (mouse (endogenous in bEnd3)). Description: proximity ligation.
Sequence of low-density lipoprotein receptor-related protein 1 (mouse (endogenous in bEnd3)) (Q91ZX7 20-4545): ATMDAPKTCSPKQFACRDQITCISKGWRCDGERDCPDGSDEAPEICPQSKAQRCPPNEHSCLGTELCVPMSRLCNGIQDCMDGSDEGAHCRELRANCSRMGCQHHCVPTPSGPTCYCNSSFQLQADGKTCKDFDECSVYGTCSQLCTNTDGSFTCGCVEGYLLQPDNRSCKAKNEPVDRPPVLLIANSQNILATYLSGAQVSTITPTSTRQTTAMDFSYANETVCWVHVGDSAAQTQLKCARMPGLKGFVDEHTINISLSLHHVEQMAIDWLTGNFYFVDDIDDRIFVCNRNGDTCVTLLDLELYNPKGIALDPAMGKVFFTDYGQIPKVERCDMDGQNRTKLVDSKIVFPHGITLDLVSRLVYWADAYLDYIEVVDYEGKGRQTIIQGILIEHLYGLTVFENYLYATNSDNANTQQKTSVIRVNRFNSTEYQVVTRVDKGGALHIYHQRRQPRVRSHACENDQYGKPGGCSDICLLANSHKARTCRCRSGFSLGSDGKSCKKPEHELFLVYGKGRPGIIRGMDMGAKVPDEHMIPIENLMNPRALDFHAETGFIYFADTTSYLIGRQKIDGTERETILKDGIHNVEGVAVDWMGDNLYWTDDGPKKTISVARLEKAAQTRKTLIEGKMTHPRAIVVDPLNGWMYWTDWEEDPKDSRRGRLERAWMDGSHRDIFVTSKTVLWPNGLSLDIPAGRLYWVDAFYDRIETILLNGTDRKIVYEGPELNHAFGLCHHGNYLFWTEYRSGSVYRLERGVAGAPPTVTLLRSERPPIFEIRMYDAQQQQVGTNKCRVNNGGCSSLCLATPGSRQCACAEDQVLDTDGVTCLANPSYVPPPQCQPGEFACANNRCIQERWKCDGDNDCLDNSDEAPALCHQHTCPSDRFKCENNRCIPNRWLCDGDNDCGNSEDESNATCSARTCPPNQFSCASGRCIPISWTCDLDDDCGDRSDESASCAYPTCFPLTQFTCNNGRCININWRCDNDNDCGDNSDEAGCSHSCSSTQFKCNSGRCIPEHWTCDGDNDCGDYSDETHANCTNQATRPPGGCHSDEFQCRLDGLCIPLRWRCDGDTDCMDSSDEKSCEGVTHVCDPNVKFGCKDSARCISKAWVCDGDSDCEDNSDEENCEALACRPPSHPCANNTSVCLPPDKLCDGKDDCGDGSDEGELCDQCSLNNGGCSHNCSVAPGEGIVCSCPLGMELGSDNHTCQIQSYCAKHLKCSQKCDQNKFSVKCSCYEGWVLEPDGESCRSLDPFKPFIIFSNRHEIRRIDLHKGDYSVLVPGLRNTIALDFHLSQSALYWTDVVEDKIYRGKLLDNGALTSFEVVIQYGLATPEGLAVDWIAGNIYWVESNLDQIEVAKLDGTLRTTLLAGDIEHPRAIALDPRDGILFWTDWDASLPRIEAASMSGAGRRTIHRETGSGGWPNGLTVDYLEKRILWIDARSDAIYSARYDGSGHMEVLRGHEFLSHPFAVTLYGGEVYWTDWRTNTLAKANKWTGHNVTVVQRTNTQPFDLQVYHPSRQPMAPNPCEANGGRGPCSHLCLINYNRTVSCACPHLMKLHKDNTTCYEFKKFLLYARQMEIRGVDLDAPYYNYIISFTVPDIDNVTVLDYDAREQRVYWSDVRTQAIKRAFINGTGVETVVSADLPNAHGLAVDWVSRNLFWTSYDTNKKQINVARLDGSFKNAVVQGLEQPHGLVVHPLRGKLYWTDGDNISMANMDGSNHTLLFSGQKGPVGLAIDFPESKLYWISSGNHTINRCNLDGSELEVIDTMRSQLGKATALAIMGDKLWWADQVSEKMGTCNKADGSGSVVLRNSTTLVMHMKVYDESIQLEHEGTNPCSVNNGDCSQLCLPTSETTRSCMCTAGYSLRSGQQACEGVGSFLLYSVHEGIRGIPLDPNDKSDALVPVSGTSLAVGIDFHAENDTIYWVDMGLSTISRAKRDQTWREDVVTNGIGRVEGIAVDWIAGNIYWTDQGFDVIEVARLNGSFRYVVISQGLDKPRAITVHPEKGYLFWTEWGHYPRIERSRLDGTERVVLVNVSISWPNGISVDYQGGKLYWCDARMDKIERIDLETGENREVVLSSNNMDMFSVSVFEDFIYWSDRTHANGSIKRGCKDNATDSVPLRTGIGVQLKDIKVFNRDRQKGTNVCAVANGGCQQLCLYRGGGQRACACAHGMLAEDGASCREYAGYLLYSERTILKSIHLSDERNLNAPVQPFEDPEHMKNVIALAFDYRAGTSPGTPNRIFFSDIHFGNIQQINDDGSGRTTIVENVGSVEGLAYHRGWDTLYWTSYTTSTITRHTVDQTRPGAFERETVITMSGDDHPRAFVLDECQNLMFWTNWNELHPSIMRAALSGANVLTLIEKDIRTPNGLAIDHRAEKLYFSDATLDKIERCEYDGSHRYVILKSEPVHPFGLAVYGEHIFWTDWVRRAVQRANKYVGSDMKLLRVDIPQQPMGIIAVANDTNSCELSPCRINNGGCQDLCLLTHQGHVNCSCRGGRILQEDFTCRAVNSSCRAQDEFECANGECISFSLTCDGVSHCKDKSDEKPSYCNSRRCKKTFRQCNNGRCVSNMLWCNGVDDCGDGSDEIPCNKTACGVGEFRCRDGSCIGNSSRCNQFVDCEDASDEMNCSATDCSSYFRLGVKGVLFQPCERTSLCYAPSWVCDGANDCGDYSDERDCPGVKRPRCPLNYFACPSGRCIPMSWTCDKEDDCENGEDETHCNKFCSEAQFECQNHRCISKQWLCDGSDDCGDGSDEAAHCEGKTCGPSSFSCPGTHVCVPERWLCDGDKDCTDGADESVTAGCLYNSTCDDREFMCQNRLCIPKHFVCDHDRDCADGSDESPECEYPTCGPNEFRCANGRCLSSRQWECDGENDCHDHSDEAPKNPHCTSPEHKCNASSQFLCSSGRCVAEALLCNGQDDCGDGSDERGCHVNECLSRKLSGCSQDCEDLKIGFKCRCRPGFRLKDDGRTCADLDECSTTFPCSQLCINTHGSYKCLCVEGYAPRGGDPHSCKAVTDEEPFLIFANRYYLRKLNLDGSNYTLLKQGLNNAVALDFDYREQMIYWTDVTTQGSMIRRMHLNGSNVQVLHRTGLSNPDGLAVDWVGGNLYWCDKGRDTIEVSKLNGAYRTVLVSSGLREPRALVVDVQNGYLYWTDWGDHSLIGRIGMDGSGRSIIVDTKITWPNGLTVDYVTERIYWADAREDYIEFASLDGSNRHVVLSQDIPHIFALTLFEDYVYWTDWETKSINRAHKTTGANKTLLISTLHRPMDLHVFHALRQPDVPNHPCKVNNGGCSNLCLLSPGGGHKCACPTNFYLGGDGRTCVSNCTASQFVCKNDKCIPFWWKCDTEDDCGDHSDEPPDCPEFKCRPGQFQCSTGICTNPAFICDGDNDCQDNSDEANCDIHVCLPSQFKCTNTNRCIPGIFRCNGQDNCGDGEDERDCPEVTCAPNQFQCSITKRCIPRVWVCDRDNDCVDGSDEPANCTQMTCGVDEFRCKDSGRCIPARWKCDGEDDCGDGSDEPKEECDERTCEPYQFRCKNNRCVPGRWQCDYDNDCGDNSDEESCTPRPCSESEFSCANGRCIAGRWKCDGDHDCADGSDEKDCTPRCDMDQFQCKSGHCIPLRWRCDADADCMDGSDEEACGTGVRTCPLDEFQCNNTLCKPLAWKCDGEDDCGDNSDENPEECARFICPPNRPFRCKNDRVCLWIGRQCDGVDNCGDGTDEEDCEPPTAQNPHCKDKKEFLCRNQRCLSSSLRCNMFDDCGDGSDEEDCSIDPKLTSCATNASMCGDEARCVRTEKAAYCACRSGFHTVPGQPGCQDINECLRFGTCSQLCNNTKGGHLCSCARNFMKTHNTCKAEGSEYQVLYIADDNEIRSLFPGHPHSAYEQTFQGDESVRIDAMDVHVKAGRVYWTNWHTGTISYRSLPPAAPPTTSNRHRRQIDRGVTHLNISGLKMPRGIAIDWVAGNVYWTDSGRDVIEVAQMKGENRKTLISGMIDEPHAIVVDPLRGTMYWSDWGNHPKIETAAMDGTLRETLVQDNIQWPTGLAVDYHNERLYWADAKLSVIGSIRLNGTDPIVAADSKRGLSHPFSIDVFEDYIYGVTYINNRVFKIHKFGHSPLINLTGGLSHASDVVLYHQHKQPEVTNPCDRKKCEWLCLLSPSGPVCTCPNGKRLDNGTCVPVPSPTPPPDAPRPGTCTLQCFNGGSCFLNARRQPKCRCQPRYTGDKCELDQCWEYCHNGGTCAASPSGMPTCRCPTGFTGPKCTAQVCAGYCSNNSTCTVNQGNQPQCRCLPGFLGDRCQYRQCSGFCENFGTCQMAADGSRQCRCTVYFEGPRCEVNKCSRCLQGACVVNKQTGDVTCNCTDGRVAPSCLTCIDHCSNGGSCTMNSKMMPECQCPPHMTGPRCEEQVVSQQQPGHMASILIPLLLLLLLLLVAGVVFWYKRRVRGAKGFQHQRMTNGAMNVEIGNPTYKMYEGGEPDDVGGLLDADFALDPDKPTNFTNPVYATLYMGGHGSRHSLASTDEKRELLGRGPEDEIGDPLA

As for “syndapin-2 (from UniProt Q9WVE8 1-486) (natural protein)”, the PLA dots per cell (dots per cell) came to 250.

B1: apolipoprotein E (ligand)
chain: EGEPEVTDQLEWQSNQPWEQALNRFWDYLRWVQTLSDQVQEELQSSQVTQELTALMEDTMTEVKAYKKELEEQLGPVAEETRARLGKEVQAAQARLGADMEDLRNRLGQYRNEVHTMLGQSTEEIRARLSTHLRKMRKRLMRDAEDLQKRLAVYKAGAREGAERGVSAIRERLGPLVEQGRQRTANLGAGAAQPLRDRAQAFGDRIRGRLEEVGNQARDRLEEVREHMEEVRSKMEEQTQQIRLQAEIFQARLKGWFEPIVEDMHRQWANLMEKIQASVATNPIITPVAQENQ
In turn, B1 had a PLA dots per cell (dots per cell) of 80.

The values above are taken from paper doi:10.1101/2020.07.12.199869.
